Assay results as given in patent US20210292393A1 (published 2021).

Target: SARS-CoV spike protein (SARS-CoV, UniProt P59594 14-1190)
Test: not given

Binder	median fluorescence intensity, fold over isotype control [fold over isotype]
antibody 372 (antibody, V domains shown) VH: QVQLVESGGGVVQPGRSLRLSCAASGFTFSSYAMHWVRQAPGKGLEWVAVISYDGSNKYYADSVKGRFTISRDNSKNTLYLQMNSLRAEDTAVYYCARDLGTSALLWFGELFLNYGMDVWGQGTTVTVSS VL: QSALTQPRSVSGSPGQSVTISCTGTSSDVGGYNYVSWYQQHPGKAPKLMIYDVSKRPSGVPDRFSGSKSGNTASLTISGLQAEDEADYYCCSYAGSPILVFGGGTKLTVL	1.08
antibody 368 (antibody, V domains shown) V domain 1: QITLKESGPTLVKPTETLTLTCAFSGFSLTKTGEAAGWIRQAPGRALEWVTVIFWDDDKRYSPSLQNRLTVTKDTSKNVVVLTMTNVDPVDTATYFCWAMGGPGKEFFGQGTRVAVSS V domain 2: QSVLTQPPSVSGAPGQRVTVSCTGTSSSIGPYSDVHWYQHIPGKAPRLLIFGTSNRPSGVPARFSGSKSGSSASLVIAGLQAEDEADYYCQSYDSSLGEIYVFGTGTTVTVL	1.09
antibody 367 (antibody, V domains shown) VH: QVQLVQSGAEVKKPGASVKVSCKASGYTFTGYYIHWVRQAPGQGLEWMGWINPNSGGTIYAQKFQGRVTMTRDTSISTAYMELSRLTSDDTAVYSCAREPYYDILTGYYAPRRYFDYWGQGTLVTVSS VL: QSALTQPASVSGSPGQSITISCTGTSSDVGSYNYVSWYLQHPGKAPKLMIYDVSNRPSGVSNRFSGSKSGNTASLTISGLQAEDEADFYCSSYTSRSTYVFGTGTKVTVL	1.08
antibody 379 (antibody, V domains shown) VH: QVQLQESGPGLVKPSQTLSLTCTVSGGSISSGGYYWSWIRQHPGKGLEWIGYIYYSGSTYYNPSLKSRVTISVDTSKNQFSLKLSSVTAADTAVYYCARGPLDFWSGYFRLRYFDSWGQGTLVTVSS VL: QSALTQPASVSGSPGQSITISCTGTSSDVGGYNYVSWYQQHPGKAPKLMIYDVTNRPSGVSNRFSGSKSGNTASLTISGLQAEDEADYYCSSYTSSSTCVFGTGTKVTVL	5.9
antibody 380 (antibody, V domains shown) VH: QVQLVESGGGVVQPGRSLRLSCAASGFTLKNYGMHWVRQAPGKGLEWVIVLSFDGSDEYKADSVRGRFTVSRDNSKNTLFLQMNSLRPDDTAVYYCAREQPTMIEGGRGPFDIWGQGTMVTVSS VL: EVVMTQSPATLSVSPGDRATLSCRASQGVNSNLAWYQQKPGQAPRLLIYAASTRATGIPARFSASGSGTHFTLTISSLQSEDFAVYYCLQYNNWPPWTFGQGTKLEIK	1.21

Target: SARS-CoV-2 spike (S) protein, full length, wild type, expressed on the surface of CHO cells (SARS-CoV-2, UniProt P0DTC2 14-1273)
Test: not given

Binder	median fluorescence fold over isotype [fold over isotype]
antibody 326 (antibody, V domains shown) VH: QITLKESGPTLVKPTQTLTLTCTFSGFSLNTSGVGVGWIRQPPGKALEWLSLIFWNDDKRYSPSLRSRLTITKDTSKNQVVLTMTNMDPVDTATYFCAHRNSGWSLKFDSWGQGSLVTVSA VL: DIQMTQSPSSVSASVGDRVTITCRARQGISSWLVWYQQKPGKAPKLLIFGASSLQSGVPSRFNASGTGTEFTLTISSLQPEDFATYYCQQADSFPITFGQGTRLEIK	10.1
antibody 323 (antibody, V domains shown) VH: QVQLVQSGAEVKKPGASVKVSCKVSGYTLTELSMHWVRQAPGKGLEWMGGFDPEDGETIYAQKFQGRVTMTEDTSTDTAYMELSSLRSEDTAVYYCATSTIFAPGGWFDPWGQGTLVTVSS VL: QSALTQPASVSGSPGQSITISCTGTSSDVGSYNLVSWYQQHPGKAPKLMIYEVSKRPSGVSNRFSGSKSGNTASLTISGLQAEDEADYYCCSYAGSTHYVFGTGTKVTVL	20.6
antibody 329 (antibody, V domains shown) VH: EVQLVESGGGLVQPGGSLRLSCAASGFTFSSYWMHWVRQAPGKGLVWVSRINSDGSSTSYADSVKGRFTISRDNAKNTLYLQMNSLRAEDTAVYYCAREGIVATITLDYWGQGTLVTVSS VL: not shown	9.41
antibody 365 (antibody, V domains shown) VH: QVQLVESGGGVVQPGRSLRLSCAASGFNLSSYAMHWVRQASGKGLEWVSLISYDGSIKYYTDSVKGRFTVSGDNSKNTLFLQMNSLRPDDSALYYCVRGGVSGPNSFDMWGQGTTVTVSS VL: DVVMTQSPLSLPVTLGQPASISCRSSQSLVYSDGNTYVNWFQQRPGQSPRRLIYKVSIRASGVPDRFSGSGSGTDFALKISRVEAEDVGVYYCMQGTHWPVTFGQGTKVEIK	10.7
antibody 327 (antibody, V domains shown) VH: QVQLVESGGGVVQPGRSLRLSCAASGFNLSNYAMHWVRQASGKGLEWVSLISYDGSIKYYTDSVKGRFTVSGDNSKNTLFLQMNSLRPDDSALYYCVRGGVSGPNSFDMWGQGTTVTVSS VL: DVVMTQSPLSLPVTLGQPASISCRSSQSLVYSDGNTYVNWFQQRPGQSPRRLIYQVSIRASGVPDRFSGSGSGTDFALKISRVEAEDVGIYYCMQGTHWPVTFGQGTKVEIK	9.54
antibody 324 (antibody, V domains shown) VH: QVQLQESGPGLVKPSGTLSLTCAVSGGSISSSNWWSWVRQPPGKGLEWIGEIYHSGSTNYNPSLKSRVTISVDNSKNQFSLKLSSVTAADTAVYYCARESVAAAGISYYYYGMDVWGQGTTVTVSS VL: EIVLTQSPGTLSLSPGERATLSCRASQSVSGRYLAWYQQKPGQAPRLLIYGASSRATGIPDRFSGSGSGTDFTLTISRLEPEDFAVYYCQHYGSSPGTFGQGTRLEIK	9.44

Target: SARS-CoV-2 full-length spike protein on pseudotyped lentivirus (SARS-CoV-2, UniProt P0DTC2 14-1273)
Test: cell-based or functional assay

Binder	IC50 (pseudoneutralization) [µg/mL]	IC80 (pseudoneutralization) [µg/mL]
anti-SARS-CoV-2 antibody 462 (antibody, V domains shown) VH: QVQLVESGGGVVQPGRSLRLSCAASGFTFSSYGMHWVRQAPGKGLEWVAVIWYDGNNKYYADSVKGRFTISRDNSKNTLYLQMNSLRAEDTAVYYCAKDPTWFGELPSYYYYGMDVWGQGTTVTVSS VL: not shown	> 50	> 50
anti-SARS-CoV-2 antibody 364 (antibody, V domains shown) VH: EVQLVESGGGLVQPGRSLRLSCTASGFTFGDYAMSWFRQAPGKGLEWVGFIRSKAYGGTTEYAASVKGRFTISRDDSKSIAYLQMNSLKTEDTAVYYCTRFGIDYDYIWGSYRYTTLFDYWGQGTLVTVSS VL: not shown	> 50	> 50
anti-SARS-CoV-2 antibody 555 (antibody, V domains shown) VH: QVQLVQSGAEVKKPGSSVKVSCKASGGTFSNYAISWVRQAPGQGLEWMGRIIPILGIANYAQKFQGRVTITADKSTSTAYMELSSLRSEDTAVYYCARGYYEARHYYYYYAMDVWGQGTAVTVSS VL: not shown	0.38	1.4
anti-SARS-CoV-2 antibody 419 (antibody, V domains shown) VH: QVQLVQSGAEVKKPGASVKVSCKASGYTFTSYYMHWVRQAPGQGLEWMGIINPSGGSTSYAQKFQGRVTMTRDTSTSTVYMELSSLRSEDTAVYYCARDWTQSSGYDYYYGLDVWGQGTTVTVSS VL: not shown	> 50	> 50
anti-SARS-CoV-2 antibody 488 (antibody, V domains shown) VH: EVQLVESGGGLIQPGGSLRLSCAASGLTVSSNYMSWVRQAPGKGLEWVSVIYSGGSTYYADSVKGRFTISRDNSKNTLYLQMNSLRAEDTAVYYCARSPYGGNSWGQGTLVTVSS VL: not shown	3.52	> 50
anti-SARS-CoV-2 antibody 292 (antibody, V domains shown) VH: EVQLVESGGGLIQPGGSLRLSCAASGFTVSSNYMSWVRQAPGKGLEWVSVIYSGGSTYYADSVKGRFTISRDNSKNTLYLQMNSLRAEDTAVYYCARDLQGGGGPWGQGTLVTVSS VL: AIQMTQSPSSLSASVGDRVTITCRASQGIRNDLGWYQQKPGKAPKLLIYAASSLQSGVPSRFSGSGSGTDFTLTISSLQPEDFATYYCLQDYNYPRTFGQGTKVEIKR	> 50	> 50
anti-SARS-CoV-2 antibody 481 (antibody, V domains shown) VH: EVQLVESGGGLIQPGGSLRLSCAASGFTVSSNYMSWVRQAPGKGLEWVSVIYSGGSTFYADSVKGRFTISRDNSKNTLYLQMNSLRAEDTAVYYCAREVAGTYDYWGQGTLVTVSS VL: DIQMTQSPSSVSASVGDRVTITCRASQGISSWLAWYQQKPGKAPKLLIYAASSLQSGVPSRFSGSGSGTDFTLTISSLQPEDFATYYCQQANSFPGGTFGPGTKVDIKR	17.2	> 50
anti-SARS-CoV-2 antibody 447 (antibody, V domains shown) VH: EVQLVESGGGLVQPGGSLRLSCAASGFTVSSNYMSWVRQAPGKGLEWVSVIYSGGSTYYADSVKGRFTISRDNSKNTLYLQMNSLRAEDTAVYYCARDKSSGSGPWGQGTLVTVSS VL: AIQMTQSPSSLSASVGDRVTITCRASQGIRNDLGWYQQKPGKAPKLLIYAASSLQSGVPSRFSGSGSGTDFTLTISSLQPEDFATYYCLQDYNYPRTFGQGTKVEIKR	> 50	> 50
anti-SARS-CoV-2 antibody 506 (antibody, V domains shown) VH: QITLKESGPTLVKPTQTLTLTCTFSGFSLSTSGVGVGWIRQPPGKALEWLALIYWDDDKRYSPSLKSRLTITKDTSKNQVVLTMTNMDPVDTATYYCAHHSLSSIFDYWGQGTLVTVSS VL: QSALTQPASVSGSPGQSITISCTGTSSDVGDYNYVSWYQQHPGKAPKLMIYEVSNRPSGVSNRFSGSKSGNTASLTISGLQAEDEADYYCSSYTSSSTVFGGGTKLTVLG	> 50	> 50
anti-SARS-CoV-2 antibody 483 (antibody, V domains shown) VH: QVQLQESGPGLVKPSETLSLTCTVSGGSISSYYWSWIRQPPGKGLEWIGYIYYSGSTNYNPSLKSRVTISVDTSKNQFSLKLSSVTAADTAVYYCARAPEEKSSEIGELVGWGWFDPWGQGTLVTVSS VL: not shown	> 50	> 50
anti-SARS-CoV-2 antibody 408 (antibody, V domains shown) VH: QVQLVESGGGVVQPGRSLRLSCAASGFTFSSYAMHWVRQAPGKGLEWVAVISYDGSNKYYADSVKGRFTISRDNSRNTLYLQMNSLRAEDTAVYYCAKGADTPHYSGYDFLSVGYYYYGMDVWGQGTTVTVSS VL: DIQMTQSPSSLSASVGDRVTITCRASQSISSYLNWYQQKPGKAPKLLIYAASSFQSGVPSRFSGSRSGTDFTLTISSLQPEDFATYYCQQSYSAPFTFGPGTKVDIKR	> 50	> 50
